We go through 54 variants from the Human Domainome abundance scans (Beltran et al. 2025).

± gives the uncertainty stated by the source.

B1: Transcription elongation factor A N-terminal and central domain-containing protein, residues 30 to 77; numbered along this chain, Q8N8B7 (parent)
chain: LTELETIYVTKEHLQETDVVRAVYRVLKNCPSVALKKKAKCLLSKWKA

Variants of B1 are the subject of this data set. Put plainly: abundance fitness (aPCA) (normalised: wild type 0, dead -1); higher = more abundant; growth selection in yeast, the domain comes from the species named. The following applies: Homo sapiens.
On to LTELETIYVTKEHHQETDVVRAVYRVLKNCPSVALKKKAKCLLSKWKA [L14H], for which the abundance fitness worked out at 0.294 ± 0.1.

For the variant LTELETIYVTKEHSQETDVVRAVYRVLKNCPSVALKKKAKCLLSKWKA [L14S], the abundance fitness amounted to 0.296 ± 0.066.

LTELETIYVTKEHYQETDVVRAVYRVLKNCPSVALKKKAKCLLSKWKA [L14Y]: the abundance fitness was -0.124 ± 0.18.

For LTELETIYVTKEHMQETDVVRAVYRVLKNCPSVALKKKAKCLLSKWKA [L14M], the abundance fitness was 0.16 ± 0.082.

LTELETIYVTKEHPQETDVVRAVYRVLKNCPSVALKKKAKCLLSKWKA [L14P]: the abundance fitness is -0.049 ± 0.12.

LTELETIYVTKEHQQETDVVRAVYRVLKNCPSVALKKKAKCLLSKWKA [L14Q]: the abundance fitness was 0.247 ± 0.1.

Consider LTELETIYVTKEHCQETDVVRAVYRVLKNCPSVALKKKAKCLLSKWKA [L14C], for which the abundance fitness stood at 0.061 ± 0.097.

Turning to LTELETIYVTKEHAQETDVVRAVYRVLKNCPSVALKKKAKCLLSKWKA [L14A], the abundance fitness stood at 0.241 ± 0.064.

Take LTELETIYVTKEHRQETDVVRAVYRVLKNCPSVALKKKAKCLLSKWKA [L14R]: the abundance fitness amounted to 0.21 ± 0.057.

As for LTELETIYVTKEHNQETDVVRAVYRVLKNCPSVALKKKAKCLLSKWKA [L14N], the abundance fitness was determined as 0.235 ± 0.12.

Turning to LTELETIYVTKEHTQETDVVRAVYRVLKNCPSVALKKKAKCLLSKWKA [L14T], the abundance fitness was found to be 0.328 ± 0.087.

With LTELETIYVTKEHWQETDVVRAVYRVLKNCPSVALKKKAKCLLSKWKA [L14W], the abundance fitness is 0.094 ± 0.06.

For the variant LTELETIYVTKEHVQETDVVRAVYRVLKNCPSVALKKKAKCLLSKWKA [L14V], the abundance fitness was found to be 0.172 ± 0.065.

As for LTELETIYVTKEHEQETDVVRAVYRVLKNCPSVALKKKAKCLLSKWKA [L14E], the abundance fitness came to 0.336 ± 0.065.

Regarding LTELETIYVTKEHDQETDVVRAVYRVLKNCPSVALKKKAKCLLSKWKA [L14D], the abundance fitness worked out at 0.184 ± 0.083.

For the variant LTELETIYVTKEHKQETDVVRAVYRVLKNCPSVALKKKAKCLLSKWKA [L14K], the abundance fitness was determined as 0.23 ± 0.082.

LTELETIYVTKEHGQETDVVRAVYRVLKNCPSVALKKKAKCLLSKWKA [L14G]: the abundance fitness worked out at 0.252 ± 0.054.

LTELETIYVTKEHLYETDVVRAVYRVLKNCPSVALKKKAKCLLSKWKA [Q15Y]: the abundance fitness is -0.562 ± 0.18.

Consider LTELETIYVTKEHLPETDVVRAVYRVLKNCPSVALKKKAKCLLSKWKA [Q15P], for which the abundance fitness stood at 0.134 ± 0.15.

In the case of LTELETIYVTKEHLHETDVVRAVYRVLKNCPSVALKKKAKCLLSKWKA [Q15H], the abundance fitness was -0.138 ± 0.17.

Turning to LTELETIYVTKEHLRETDVVRAVYRVLKNCPSVALKKKAKCLLSKWKA [Q15R], the abundance fitness came to 0.093 ± 0.071.

With LTELETIYVTKEHLTETDVVRAVYRVLKNCPSVALKKKAKCLLSKWKA [Q15T], the abundance fitness was -0.213 ± 0.12.

With LTELETIYVTKEHLSETDVVRAVYRVLKNCPSVALKKKAKCLLSKWKA [Q15S], the abundance fitness was -0.208 ± 0.083.

Regarding LTELETIYVTKEHLNETDVVRAVYRVLKNCPSVALKKKAKCLLSKWKA [Q15N], the abundance fitness is -0.388 ± 0.16.

In the case of LTELETIYVTKEHLMETDVVRAVYRVLKNCPSVALKKKAKCLLSKWKA [Q15M], the abundance fitness is -0.452 ± 0.13.

Consider LTELETIYVTKEHLLETDVVRAVYRVLKNCPSVALKKKAKCLLSKWKA [Q15L], for which the abundance fitness is -0.352 ± 0.084.

For LTELETIYVTKEHLDETDVVRAVYRVLKNCPSVALKKKAKCLLSKWKA [Q15D], the abundance fitness was -0.27 ± 0.13.

Regarding LTELETIYVTKEHLIETDVVRAVYRVLKNCPSVALKKKAKCLLSKWKA [Q15I], the abundance fitness was -0.46 ± 0.15.

Regarding LTELETIYVTKEHLCETDVVRAVYRVLKNCPSVALKKKAKCLLSKWKA [Q15C], the abundance fitness is -0.002 ± 0.12.

LTELETIYVTKEHLKETDVVRAVYRVLKNCPSVALKKKAKCLLSKWKA [Q15K]: the abundance fitness is 0.209 ± 0.093.

As to LTELETIYVTKEHLAETDVVRAVYRVLKNCPSVALKKKAKCLLSKWKA [Q15A], the abundance fitness was -0.088 ± 0.081.

LTELETIYVTKEHLEETDVVRAVYRVLKNCPSVALKKKAKCLLSKWKA [Q15E]: the abundance fitness was -0.016 ± 0.1.

As to LTELETIYVTKEHLFETDVVRAVYRVLKNCPSVALKKKAKCLLSKWKA [Q15F], the abundance fitness was -0.212 ± 0.16.

As for LTELETIYVTKEHLVETDVVRAVYRVLKNCPSVALKKKAKCLLSKWKA [Q15V], the abundance fitness was -0.527 ± 0.095.

LTELETIYVTKEHLWETDVVRAVYRVLKNCPSVALKKKAKCLLSKWKA [Q15W]: the abundance fitness amounted to 0.069 ± 0.096.

In the case of LTELETIYVTKEHLQSTDVVRAVYRVLKNCPSVALKKKAKCLLSKWKA [E16S], the abundance fitness stood at 0.021 ± 0.093.

Take LTELETIYVTKEHLQDTDVVRAVYRVLKNCPSVALKKKAKCLLSKWKA [E16D]: the abundance fitness came out at 0.043 ± 0.13.

For LTELETIYVTKEHLQATDVVRAVYRVLKNCPSVALKKKAKCLLSKWKA [E16A], the abundance fitness was -0.017 ± 0.088.

With LTELETIYVTKEHLQNTDVVRAVYRVLKNCPSVALKKKAKCLLSKWKA [E16N], the abundance fitness is -0.187 ± 0.15.

Take LTELETIYVTKEHLQTTDVVRAVYRVLKNCPSVALKKKAKCLLSKWKA [E16T]: the abundance fitness was -0.116 ± 0.12.

LTELETIYVTKEHLQKTDVVRAVYRVLKNCPSVALKKKAKCLLSKWKA [E16K]: the abundance fitness is -0.152 ± 0.18.

For LTELETIYVTKEHLQPTDVVRAVYRVLKNCPSVALKKKAKCLLSKWKA [E16P], the abundance fitness was found to be 0.009 ± 0.21.

On to LTELETIYVTKEHLQRTDVVRAVYRVLKNCPSVALKKKAKCLLSKWKA [E16R], for which the abundance fitness was 0.123 ± 0.071.

Regarding LTELETIYVTKEHLQYTDVVRAVYRVLKNCPSVALKKKAKCLLSKWKA [E16Y], the abundance fitness was -0.004 ± 0.12.

For LTELETIYVTKEHLQQTDVVRAVYRVLKNCPSVALKKKAKCLLSKWKA [E16Q], the abundance fitness was determined as 0.285 ± 0.25.

As to LTELETIYVTKEHLQITDVVRAVYRVLKNCPSVALKKKAKCLLSKWKA [E16I], the abundance fitness was -0.28 ± 0.14.

As for LTELETIYVTKEHLQMTDVVRAVYRVLKNCPSVALKKKAKCLLSKWKA [E16M], the abundance fitness was 0.041 ± 0.12.

Consider LTELETIYVTKEHLQCTDVVRAVYRVLKNCPSVALKKKAKCLLSKWKA [E16C], for which the abundance fitness was -0.03 ± 0.13.

With LTELETIYVTKEHLQFTDVVRAVYRVLKNCPSVALKKKAKCLLSKWKA [E16F], the abundance fitness came to 0.028 ± 0.14.

For LTELETIYVTKEHLQWTDVVRAVYRVLKNCPSVALKKKAKCLLSKWKA [E16W], the abundance fitness is -0.414 ± 0.15.

Consider LTELETIYVTKEHLQGTDVVRAVYRVLKNCPSVALKKKAKCLLSKWKA [E16G], for which the abundance fitness is -0.008 ± 0.084.

For LTELETIYVTKEHLQVTDVVRAVYRVLKNCPSVALKKKAKCLLSKWKA [E16V], the abundance fitness is -0.279 ± 0.087.

For the variant LTELETIYVTKEHLQHTDVVRAVYRVLKNCPSVALKKKAKCLLSKWKA [E16H], the abundance fitness is -0.153 ± 0.26.

On to LTELETIYVTMEHLQETDVVRAVYRVLKNCPSVALKKKAKCLLSKWKA [K11M], for which the abundance fitness was -0.246 ± 0.16.
